# Results reported in publication PMC10741561.
# B1: WT-Sx4-GST (C-terminally GST-tagged Syntaxin 4 cytosolic domain) [not stated] / His-SNAP23 (N-terminally His-tagged SNAP23) [not stated] (parent)
# chain 1: MRDRTHELRQGDNISDDEDEVRVALVVHSGAARLGSPDDEFFQKVQTIRQTMAKLESKVRELEKQQVTILATPLPEESMKQGLQNLREEIKQLGREVRAQLKAIEPQKEEADENYNSVNTRMKKTQHGVLSQQFVELINKCNSMQSEYREKNVERIRRQLKITNAGMVSDEELEQMLDSGQSEVFVSNILKDTQVTRQALNEISARHSEIQQLERSIRELHEIFTFLATEVEMQGEMINRIEKNILSSADYVERGQEHVKIALENQKKARKKKV
# chain 2: MDNLSPEEVQLRAHQVTDESLESTRRILGLAIESQDAGIKTITMLDEQGEQLNRIEEGMDQINKDMREAEKTLTELNKCCGLCICPCNRTKNFESGKNYKATWGDGGDNSPSNVVSKQPSRITNGQPQQTTGAASGGYIKRITNDAREDEMEENLTQVGSILGNLKNMALDMGNEIDAQNQQIQKITEKADTNKNRIDIANTRAKKLIDS
# Variants of: B1
# Assay: GST pull-down (glutathione sepharose), immunoblot, ImageJ quantification
# Settings: with His-SNAP23 (N-terminally His-tagged SNAP23); 30 min; 1–5 μg Sx4-GST variant on beads, excess His-SNAP23, 4 °C; read off a plot
row,response (relative amount bound),Variant
1,0.77,chain 1 MRDRTHELRQGDNISDDEDEVRVALVVHSGAARLGSPDDEFFQKVQTIRQTMAKLESKVRELEKQQVTILATPLPEESMKQGLQNLREEIKQLGREVRAQLKAIEPQKEEADENYNSVNTRMKKTQHGVLSQQFVELINKCNSMQSEYREKNVERIRRQLKITNAGMVSDEEAAQMLDSGQSEVFVSNILKDTQVTRQALNEISARHSEIQQLERSIRELHEIFTFLATEVEMQGEMINRIEKNILSSADYVERGQEHVKIALENQKKARKKKV [chain 1 L173A E174A]

# Same assay, conditions: with His-SNAP23 (N-terminally His-tagged SNAP23); 60 min; 1–5 μg Sx4-GST variant on beads, excess His-SNAP23, 4 °C; read off a plot
row,response (relative amount bound),Variant
1,1.7,chain 1 MRDRTHELRQGDNISDDEDEVRVALVVHSGAARLGSPDDEFFQKVQTIRQTMAKLESKVRELEKQQVTILATPLPEESMKQGLQNLREEIKQLGREVRAQLKAIEPQKEEADENYNSVNTRMKKTQHGVLSQQFVELINKCNSMQSEYREKNVERIRRQLKITNAGMVSDEEAAQMLDSGQSEVFVSNILKDTQVTRQALNEISARHSEIQQLERSIRELHEIFTFLATEVEMQGEMINRIEKNILSSADYVERGQEHVKIALENQKKARKKKV [chain 1 L173A E174A]
